Changes are numbered by the printed parent chain. Numbers in names are those of the source.
B1: CD147 Ig0 wild-type (domain or fragment, human, UniProt P35613 22-138, looked up)
chain: AAGFVQAPLSQQRWVGGSVELHCEAVGSPVPEIQWWFEGQGPNDTCSQLWDGARLDRVHIHATYHQHAASTISIDTLVEEDTGTYECRASNDPDRNHLTRAPRVKWVRAQAVVLVLE
B2: CD147 Ig0 C67M (domain or fragment, human, UniProt P35613 22-138, looked up)
chain: B1 chain with C46M
modifications: Selenomethionine labeled for the crystal structure
B3: CD147 Ig0 K126A (domain or fragment, human, UniProt P35613 22-138, looked up)
chain: B1 chain with K105A

Target: the molecule itself
Test: SEC

| Protein | stoichiometry N |
| --- | --- |
| B1 | 2 |
| B2 | 2 |
| B3 | 2 |
